The DeepSol protein solubility set

Assay: soluble on expression in E. coli; label from the status in PepcDB or PDB records

Sequence	soluble on expression in E. coli
MAEGGTPVVATKPPVDNAKMLGELKLRLMHTKKGLLAIRGELQRRAEIWGAAQEEITALEKMASDAKERIQKQSDQKREERKLAAQKRKELKQKQKEEKKEESKDEKDGADDEKNDEN	not soluble
MAEGPLEAPFWRKGLLVAGLDEAGRGAWAGPIVVGAVVLPPGEYPFRDSKLLSPKARERLAEKVKEVALAFALGVAEAAEVDRLGVLKATLLAAERALLSLPLAPEALVTDYLPLPTPLPLLSPPKADEKSPTVAAASILAKVHRDRIMDELDRLYPGYGFARHKGYGTQEHQEALLALGPSPVHRKRFAPVAQAPLRFPEAP	soluble
MAEGQIIKALSGFYYVLSEGRVFQCRGRGVFRKKKVTPLVGDRVVFQATSETEGYILEIGERQNELVRPPIANVEQAILVFSAVSPDFSAKLLDRFLVLVESKRIAPIIVISKIDLLDGESKEEIARYVHDYRSIGYDVIETSAVTKGGLDELALRLRGRVSVVAGQSGVGKSSLLNALRPDLRLKTGDISTHLGRGKHTTRHVELLEVAGGLVADTPGFGALEFDQIELDELPHYFPEFRTYGEGCKFRGCLHIAEPKCAVREAVEAGEIPSYRYDHYVSFVAEMKERKPRY	not soluble
MAEGVNEPCFPGDCGIFVTKVDKGSIADGRLRVNDWLLRINDVDLINKDKKQAIKALLNGEGAINMVVRRRKSLGGKVVTPLHINLSGQKDSGISLENGVYAAAVLPGSPAAKEGSLAVGDRIVAINGIALDNKSLNECESLLRSCQDSLTLSLLKVFPQSSSWSGQNIFENIKDSDKMLSFRAHGPEVQAHNKRNLIQHNNSTQTDIFYTDRLEDRKEPGPPGGSSSFLHKPFPGGPLQVCPQACPSASERSLSSFRSDASGDRGFGLVDVRGRRPLLPFETEVGPCGVGEASLDKADSEGSNSGGTWPKAMLSSTAVPEKLSVYKKPKQRKSIFDPNTFKRPQTPPKIDYLLPGPGPAHSPQPSKRAGPLTPPKPPRRSDSIKFQHRLETSSESEATLVGSSPSTSPPSALPPDVDPGEPMHASPPRKARVRIASSYYPEGDGDSSHLPAKKSCDEDLTSQKVDELGQKRRRPKSAPSFRPKLAPVVIPAQFLEEQKCVPASGELSPELQEWAPYSPGHSSRHSNPPLYPSRPSVGTVPRSLTPSTTVSSILRNPIYTVRSHRVGPCSSPPAARDAGPQGLHPSVQHQGRLSLDLSHRTCSDYSEMRATHGSNSLPSSARLGSSSNLQFKAERIKIPSTPRYPRSVVGSERGSVSHSECSTPPQSPLNIDTLSSCSQSQTSASTLPRIAVNPASLGERRKDRPYVEEPRHVKVQKGSEPLGISIVSGEKGGIYVSKVTVGSIAHQAGLEYGDQLLEFNGINLRSATEQQARLIIGQQCDTITILAQYNPHVHQLSSHSRSSSHLDPAGTHSTLQGSGTTTPEHPSVIDPLMEQDEGPSTPPAKQSSSRIAGDANKKTLEPRVVFIKKSQLELGVHLCGGNLHGVFVAEVEDDSPAKGPDGLVPGDLILEYGSLDVRNKTVEEVYVEMLKPRDGVRLKVQYRPEEFTKAKGLPGDSFYIRALYDRLADVEQELSFKKDDILYVDDTLPQGTFGSWMAWQLDENAQKIQRGQIPSKYVMDQEFSRRLSMSEVKDDNSATKTLSAAARRSFFRRKHKHKRSGSKDGKDLLALDAFSSDSIPLFEDSVSLAYQRVQKVDCTALRPVLILGPLLDVVKEMLVNEAPGKFCRCPLEVMKASQQAIERGVKDCLFVDYKRRSGHFDVTTVASIKEITEKNRHCLLDIAPHAIERLHHMHIYPIVIFIHYKSAKHIKEQRDPIYLRDKVTQRHSKEQFEAAQKLEQEYSRYFTGVIQGGALSSICTQILAMVNQEQNKVLWIPACPL	soluble
MAEHRSMQRAALLDAARSLLSDGGTEALTFPALAERTGLARSSVYEYFRSRAAVVEELCAVDFPVWAAEVEAAMERETAPDAKVEAYVRTQLDLVGDRRHRAVVAISASELDAGAREKIRAAHGGLIAMIVEALGEMGHGQPRLAAMLLQGVVDAAVRRIELGAAEEPGAITEAAVSMALRGVRG	not soluble
MAEKALATLKELAFLEDPSPVERDAAIQRFEYTFEAFWKALQAYLREKEGLEGASPKGVIRLAREVGLLRDEEARLALGMVDDRSLTVHTYNEPLARAIFRRLPDYARLMEQVLGRLRR	soluble
MAEKMQAIMKTKPAYGAELVEVDVPKPGPGEVLIKVLATSICGTDLHIYEWNEWAQSRIKPPQIMGHEVAGEVVEVGPGVEDLQVGDYISVETHIVCGKCYACKHNRYHVCQNTKIFGVDMDGVFAHYAIVPAKNAWKNPKDMPPEYAALQEPLGNAVDTVLAGPIAGRSTLITGAGPLGLLGIAVAKASGAYPVIVSEPSEFRRKLAKKVGADYVVNPFEEDPVKFVMDITDGAGVEVFLEFSGAPKALEQGLKAVTPGGRVSLLGLFPREVTIDFNNLIIFKALEVHGITGRHLWETWYTVSSLIQSGKLNLDPIITHKYKGFDKFEEAFELMRAGKTGKVVFFPHKG	soluble
MAELSDQEMLRYNRQIILRGFDFDGQEALKDSRVLIVGLGGLGCAASQYLASAGVGNLTLLDFDTVSLSNLQRQTLHSDATVGQPKVESARDALTRINPHIAITPVNALLDDAELAALIAEHDLVLDCTDNVAVRNQLNAGCFAAKVPLVSGAAIRMEGQITVFTYQDGEPCYRCLSRLFGENALTCVEAGVMAPLIGVIGSLQAMEAIKMLAGYGKPASGKIVMYDAMTCQFREMKLMRNPGCEVCGQ	soluble
MAERELYIGVMSGTSLDGVDTALVALQDDNIELLAHHDYPIPADLKQRLLNVCIGQPTTLIAMGELEHDLGHLFSDAVLALLQHSGYRAEHIRAIGCHGQTVFHQPTGTKPFTMQIGDANIIATRTGITTVADFRRKDVALGGQGAPLVPAFHRTIFHAEQSTVVVLNIGGIANISVLKPNGEVVGYDTGPGNMLMDSWCQKERNQPYDKDALWAKQGSVNAALLSHLKQDHYFALPAPKSTGRELFNLPWLETQLATFSVDATDVQRTLCEFTAQTIVEQVAPFAEGPQPQLLVCGGGAQNPLLMERLQALLPSWQVAPTTQMGVDGDNMEAMAFAWLAQRRIHGLPSNLPAVTGASRLASLGVIYYPD	not soluble
MAERTHFMELALVEARSAGERDEVPIGAVLVLDGRVIARSGNRTRELNDVTAHAEIAVIRMACEALGQERLPGADLYVTLEPCTMCAAAISFARIRRLYYGAQDPKGGAVESGVRFFSQPTCHHAPDVYSGLAESESAEILRQF	soluble
MAESFTTTNRYFDNKHYPRGFSRHGDFTIKEAQLLERHGYAFNELDLGKREPVTEEEKLFVAVCRGEREPVTEAERVWSKYMTRIKRPKRFHTLSGGKPQVEGAEDYTDSDD	soluble
MAETIISLLSPTLDIKSPYYFNPDYLHQFNMHTNTAIDKLSEAKDNYAIWKLRFFDLLQFTNKTGFIDGTLPKPDPSSPYYEPWKQCNAIVLHWLSNTVTDTLQNHVLQAETVHKAWEDLRRIFVPCIDFKIYELRQRLATLRQGGDSVAEYFGKLSKAWLELKAYDPVQECKCGGCDCESEKRATEAREKEQRYAFLMGLNKEFDYVKMKVMHKKIPPSVYQAYEMVVYSEAMMKWKMGGRI	soluble
MAFADIVRSVENRTNAATLNWSIKNGWKPEVTGFSGYGSGRRVRVLARVLMSNPENLLVDAPSQSITQQAQRGWRQFFTIQVPNLPVTVTVGGKTVTSSTNDNGYVDLLVEDHNLDPGWHTIQIQAEGSTPAEARVLIVENTARIGLISDIDDTIMVTWLPRALLAAWNSWVLHTKTRKPVPGMNRFYEELLKDHPDAPVFYLSTGAWNTFETLQEFINKHALPDGPMLLTDWGPTPTGLFRSGQEHKKVQLRNLFIEYPDMKWILVGDDGQHDPLIYGEAVEEHPNRIAGVAIRELSPGEHVLSHGTTASLSTITTNGGQGVPVVHGRDGYELLQRYETKPFALEHHHHHH	soluble
MAFISFRDFMEKAVKDYYSSQRALKDFFTAPELDRAFGEALAEFFSQHLSEFERPALVELGAGRGLLAYDILNYYRANYPDLFNRLKYYIYEFSPYLISKQREVLKNFKNVEWVEELPKVEGIVFSNEFFDALPVHIVKGGKELYVDEKGSEVWLSLENEKVKEFLRRMNYENLNQIVEVCLDCIDMLKKISESLVEGYHFVIDYGYTSEEITKYPEGTVVAYKEHKVVKDFLKEAGNADITAHVNFSALMEYGRDFGLETILFQSQRDFLMHIPTFLNELEKLSWEESAESVERLSRLKTMLISMGDRFKVLLQRKLSQLEHHHHHH	not soluble
MAFLLKLEPDMQGKVDLFRARIAQEAEDLVSTFFPQKVLELNSRVQELRLQDLSRIHSVPTSEPLATPGNKGDGPNQNLPVLLTQFSIKVPALLGSEGQLLRSNQHLVELTEWVKPEIKLLREKCNTVHM	not soluble
MAFSGSQAPYLSPAVPFSGTIQGGLQDGLQITVNGTVLSSSGTRFAVNFQTGFSGNDIAFHFNPRFEDGGYVVCNTRQNGSWGPEERKTHMPFQKGMPFDLCFLVQSSDFKVMVNGILFVQYFHRVPFHRVDTISVNGSVQLSYISFQNPRTVPVQPAFSTVPFSQPVCFPPRPRGRRQKPPGVWPANPAPITQTVIHTVQSAPGQMFSTPAIPPMMYPHPAYPMPFITTILGGLYPSKSILLSGTVLPSAQRFHINLCSGNHIAFHLNPRFDENAVVRNTQIDNSWGSEERSLPRKMPFVRGQSFSVWILCEAHCLKVAVDGQHLFEYYHRLRNLPTINRLEVGGDIQLTHVQT	soluble
MAGAKHIIDTSFLTQLDRYAIPLSRRVTAVHTGSHQSTRTGAGLDIIDHRKYNQGDSLKRIDWNLYARTEKLYIRRFEEDKNLNMVILLDASSSMLFPDNTPNKFEYAATVAAGVSYIVMKHNDVYTIATFADDVDYTKSHKGRDDFLRTIDNLTQIPVSGTTKLADCADSIYPRIKSKSMVLIMSDFLDNLDSVQKAVNRLSRHELVIVHIYDENEINLPESVDGTVKFIDSETGEEISFTVGAGFKKEYASEYSKHMAELEKIAYDFKIPYFRVSIKNEPFDTVLKIIGEG	not soluble
MAGATDQRRQEVLRAIVADYIASQEPVGSKALLERHNLKVSSATIRNDMAVLESEGYIVQQHASSGRIPTEKAYRTFVDSINDIKPLSVAERRAILGFLERGVDLEDVLKRSVQLLSQLTRQAAVIQLPNLNVSRVKHCEVVLLSPVRLLLVLITDNGRVEQRNVEVDQICEPEHVAKMRDVLNRALDNKTLSDASASLAELAAGEILVDPDIQPMILRCATVLIETLVEQPNDRLILAGASNLTHIAREMPSSLPAMLEALEEQVVVLKLLTNVRDLGHVSVLIGEENEDEQLRGTSVVTTGYGAQGATLGGLGVVGPTFMDYSGTMSKVYAVAHYVSRVLSGG	not soluble
MAGDPMDKNKLFFIETWGCQMNAEDSEKLAGMLKEMKYEATDNREDADLIIFNTCCVRENAELKVYGNLGTLKKLKDKKPNLIITVCGCMMQQRDMAEHIKKRFPFVDIVMGTHNTQMFPQYLKKVENERTSVVEIWDKEEGIVEGMPIYRSYDMKAFVTIMYGCNNFCTYCIVPYVRGRERSRKPEDIENEIKELVKKGYKEITLLGQNVNSYGKSLDEEMNFALLLRRLNNIEGLLRIRFMTSHPKDLTDDVIAAIADCDKVCEHIHLPVQSGSTTILNKMNRNYTREDYINLVNKIKSGIKNVAITTDIIVGFPGETEEDFEDTLSLVKEVEYDSAFTFLYSIREGTPAAKYENQIPDEVKHKRFNKLLEAVNLISEKKNKEYEGKIVEILVEGKSKNDGSKLMGRTRTGKLVNFEGLESSIGKLINVKITKAQAFSLVGEEVLEHHHHHH	not soluble
